Results: patent publication US20160075789A1

How the values were obtained:
Fc-EDA1 (human) [1] = experiment: sandwich ELISA of Fc-EDA1 pre-incubated in buffer or mouse serum (FIG. 26)
Fc-EDA1 (human) [2] = experiment: sandwich ELISA, EctoD2 at capture, biotinylated EctoD3 at revelation (FIG. 24)
Fc-EDA1 (human) [3] = experiment: cell-based or functional assay

Chain of Fc-EDA1 (human) (Q92838 249-385): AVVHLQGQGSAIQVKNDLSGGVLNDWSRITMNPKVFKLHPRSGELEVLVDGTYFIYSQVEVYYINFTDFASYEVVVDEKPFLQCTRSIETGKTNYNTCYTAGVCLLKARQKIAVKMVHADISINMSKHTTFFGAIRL

Binder | most sensitive detection of Fc-EDA1 (Fc-EDA1 (human) [1]) [ng/mL] | concentration of Fc-EDA1 readily detected (Fc-EDA1 (human) [2]) [ng/mL] | cytotoxicity assay using EDAR-Fas Jurkat cells (PMS/MTS viability): antibody concentration at which 40 ng/mL of Fc-EDA1 is completely inhibited (Fc-EDA1 (human) [3]) [ng/mL] | cytotoxicity assay using EDAR-Fas Jurkat cells: stoichiometry of inhibition (antibodies per Fc-EDA1) (Fc-EDA1 (human) [3])
mAbEDA1-EctoD3 (antibody, mouse IgG1, V domains shown) VH: QVQLHQSGAELARPGASVKLSCKASGYTFTSYGISWVKQRTGQGLEWIGEVYPRSGDTYYHDYFEGKATLTADKSSSTAYMELRSLTSEDSAVYFCARGDYADVWGTGTTVTVSS VL: DIVLTQSPASLAVSLGQRATISCRASKSVSTFGNSYMLWYQQKPGQPPKLLIYLASNLESGVPARFSGSGSGTDFTLNIHPVEEEDAATYYCQNSRELPYTFGGGTKLEIKR | < 1 | < 1 | – | –
mAbEDA1-EctoD2 (antibody, mouse IgG1, V domains shown) VH: EVMLEESGGGLVKSGGSLKLSCAASGFTFSTYAMSWVRQTPGKRLEWVAAISDGGDNTYYLDSVKGRFTISRDNAKNTLYLQMSSLRSEDSALYYCARQYNDYEAMDYWGQGTSLTVSS VL: DIVLTQSPTSLAVSLGQRATISCRASESVDSYGSSFMHWYQQKPGQPPKLLFYRASNLESGIPARFSGSGSRTDFTLTINPVEADDVATYYCQQSNEDPFTFGSGTKLEIKR | < 1 | < 1 | 125 | 5
